Experimental data published in the supplement of paper PMC9233669.
This sample holds only a part of the variants without activity.

Test system: biotinyl-Phe-oxazolone
Assay: self-aminoacylation, catalytic enhancement (BFO) (fold over background); higher = more active; k-Seq, kA / k0A0; sequences stand for … in GGGAAUGGAUCCACAUCUACGAAUUC…UUCACUGCAGACUUGACGAAGCUG
Outline: (§1)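 Mutagenized RNA pools with a 21-nt variable region (0.43 μM) reacted with each biotinyl-aminoacyl-oxazolone at 2–1250 μM. Reactions ran in 50 μL HEPES/NaCl/KCl/MgCl2/CaCl2 buffer with 5% acetonitrile, pH 6.9–7.0, for 90 minutes at room temperature. Streptavidin-captured RNA was quantified by triplicate qPCR and Illumina sequencing, and per-sequence fraction reacted was fit to a pseudo-first-order model with 1000 bootstraps. Catalytic enhancement is median kA divided by the uncatalyzed rate, the low-activity peak of a bimodal Gaussian fit.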

| Sequence | self-aminoacylation |
| --- | --- |
| AAACUUCAAACAAUCGGUCUG [Fam1A.1 aminoacylation ribozyme variant] | 30.9 |
| AAGCUUCCUAAUAGUCGCAAG [Fam3.1 aminoacylation ribozyme variant] | 2.32 |
| AAGCUUGAUAAUAGUCGCAAG [Fam3.1 aminoacylation ribozyme variant] | 2.72 |
| AAGCUUGCUAAUAGUUGCAAG [Fam3.1 aminoacylation ribozyme variant] | 2.19 |
| AAGGUUGCCAAUAGUCGCAAG [Fam3.1 aminoacylation ribozyme variant] | 2.4 |
| AAGGUUGCUAAUAGUCGCACG [Fam3.1 aminoacylation ribozyme variant] | 2.39 |
| AAGGUUGCUAAUAGUCGCAGG [Fam3.1 aminoacylation ribozyme variant] | 3.23 |
| AAGUAUGCUAAUAGUCGCAAG [Fam3.1 aminoacylation ribozyme variant] | 22.9 |
| AAGUUAGCUAAUAGUCGUAAG [Fam3.1 aminoacylation ribozyme variant] | 14 |
| AAGUUCGCUAAUAGUCUCAAG [Fam3.1 aminoacylation ribozyme variant] | 2.72 |
| AAGUUCGGUAAUAGUCGCAAG [Fam3.1 aminoacylation ribozyme variant] | 3.24 |
| AAGUUCUCUAAUAGUCGCAAG [Fam3.1 aminoacylation ribozyme variant] | 3.34 |
| AAGUUUACUAAUAGUCGAAAG [Fam3.1 aminoacylation ribozyme variant] | 2.51 |
| AAGUUUCCUAAUAGUUGCAAG [Fam3.1 aminoacylation ribozyme variant] | 2.63 |
| AAGUUUCCUAAUGGUCGCAAG [Fam3.1 aminoacylation ribozyme variant] | 2.62 |
| AAGUUUGCUAACAGCCGCAAG [Fam3.1 aminoacylation ribozyme variant] | 3.09 |
| AAGUUUGCUAAUGGUCGCAAC [Fam3.1 aminoacylation ribozyme variant] | 6.25 |
| AAGUUUGCUGACAGUCGCAAG [Fam3.1 aminoacylation ribozyme variant] | 2.12 |
| AAGUUUGCUUAUAGUCGCAAA [Fam3.1 aminoacylation ribozyme variant] | 2.38 |
| AAGUUUUCCAAUAGUCGCAAG [Fam3.1 aminoacylation ribozyme variant] | 2.43 |
| AAGUUUUCUAAUAGUCGCAAU [Fam3.1 aminoacylation ribozyme variant] | 2.37 |
| AAGUUUUCUCAUAGUCGCAAG [Fam3.1 aminoacylation ribozyme variant] | 3.59 |

| Sequence | self-aminoacylation |
| --- | --- |
| AAUACCCUGGUCAUCGAGUUA [Fam2.1 aminoacylation ribozyme variant] | 2.17 |
| ACACACUUCAAGCGAUCGGUC [Fam1B.1 aminoacylation ribozyme variant] | 2.18 |
| ACGUUUGCUAAUAGUCGCAGG [Fam3.1 aminoacylation ribozyme variant] | 3.87 |
| ACGUUUGCUAAUAGUCGGAAG [Fam3.1 aminoacylation ribozyme variant] | 3.98 |
| AGGUUUGCUUAUAGUCGCAAG [Fam3.1 aminoacylation ribozyme variant] | 2.89 |
| AGGUUUUCUAAUAGUCGCAAG [Fam3.1 aminoacylation ribozyme variant] | 2.83 |
| AGUACCCUGGUCAUCGAGUUA [Fam2.1 aminoacylation ribozyme variant] | 2.58 |
| AUUAACCUAGGUCAUCGUGUG [Fam2.2 aminoacylation ribozyme variant] | 3.17 |
| AUUACCCUGGUCAGCGAUUGA [Fam2.1 aminoacylation ribozyme variant] | 2.52 |
| AUUACCCUGGUCAUCGUGUGG [Fam2.1 aminoacylation ribozyme variant] | 2.9 |
| AUUACCCUGGUCGUCGAGUGG [Fam2.1 aminoacylation ribozyme variant] | 2.7 |
| AUUAGCCUCGUCAUCGAGUGA [Fam2.1 aminoacylation ribozyme variant] | 2.19 |
| AUUAGCCUGGUCAUCGAGUGC [Fam2.1 aminoacylation ribozyme variant] | 2.04 |
| AUUCAACUAGGUCAUCGUGUG [Fam2.2 aminoacylation ribozyme variant] | 5.52 |
| AUUCAACUAGGUCGUCGGGUG [Fam2.2 aminoacylation ribozyme variant] | 6.9 |
| AUUCACCUACGUCAUCGGCUG [Fam2.2 aminoacylation ribozyme variant] | 2.24 |
| AUUCACCUACUUCAUCGGGUG [Fam2.2 aminoacylation ribozyme variant] | 3.44 |
| AUUCACCUAGCUCGUCGGGUG [Fam2.2 aminoacylation ribozyme variant] | 4.07 |
| AUUCACCUAGGUCAUCGUGCG [Fam2.2 aminoacylation ribozyme variant] | 5.13 |
| AUUCACCUAGGUCCUCGUGUG [Fam2.2 aminoacylation ribozyme variant] | 5.79 |
| AUUCACCUAGGUGAUCGGGUC [Fam2.2 aminoacylation ribozyme variant] | 2.84 |
| AUUCACCUAGUUCAUCGGGAG [Fam2.2 aminoacylation ribozyme variant] | 2.23 |

| Sequence | self-aminoacylation |
| --- | --- |
| AUUCACCUAGUUCAUCGGGUU [Fam2.2 aminoacylation ribozyme variant] | 5.74 |
| AUUCAGCUAGGUCAUCGGAUG [Fam2.2 aminoacylation ribozyme variant] | 2.91 |
| CAGUUUCCUAAUAGUCGCAAG [Fam3.1 aminoacylation ribozyme variant] | 2.17 |
| CCACACUUCAAACAACCGGUC [Fam1B.1 aminoacylation ribozyme variant] | 2.26 |
| CCACACUUCAAGAAUUCGGUC [Fam1B.1 aminoacylation ribozyme variant] | 7.52 |
| CCACUUCAAACAAUCGAUCUG [Fam1A.1 aminoacylation ribozyme variant] | 4.61 |
| CCCCACUACAAGCAAUCGGUC [Fam1B.1 aminoacylation ribozyme variant] | 2.24 |
| CCCCACUUCAAGCAAUAGGUC [Fam1B.1 aminoacylation ribozyme variant] | 2.02 |
| CCUCACUUCAAGCAAUCGGAC [Fam1B.1 aminoacylation ribozyme variant] | 2.16 |
| CUAAAUCAAACAAUCGGUCUG [Fam1A.1 aminoacylation ribozyme variant] | 3.19 |
| CUAAUUCAAAUAAUCGGUCUG [Fam1A.1 aminoacylation ribozyme variant] | 2.58 |
| CUACAUCAAACAAGCGGUCUG [Fam1A.1 aminoacylation ribozyme variant] | 4.11 |
| CUACGUCAAACAAUUGGUCUG [Fam1A.1 aminoacylation ribozyme variant] | 2.06 |
| CUACGUCAAACGAUCGGUCUG [Fam1A.1 aminoacylation ribozyme variant] | 3.76 |
| CUACUUCAAACAAUCUGUCUG [Fam1A.1 aminoacylation ribozyme variant] | 3.23 |
| CUACUUCAGACAUUCGGUCUG [Fam1A.1 aminoacylation ribozyme variant] | 6.22 |
| CUACUUGAAACACUCGGUCUG [Fam1A.1 aminoacylation ribozyme variant] | 3.53 |
| CUUCAUCAAACAAUCGGUCUG [Fam1A.1 aminoacylation ribozyme variant] | 2.05 |
| UAGUUGGCUAAUAGUCGCAAG [Fam3.1 aminoacylation ribozyme variant] | 2.38 |
| UAGUUUGCUCAUAGUCGCAAG [Fam3.1 aminoacylation ribozyme variant] | 2.67 |
| UUUACCCUGGUCGUCGAGUGA [Fam2.1 aminoacylation ribozyme variant] | 5.7 |

Test system: biotinyl-Trp-oxazolone
Assay: self-aminoacylation, catalytic enhancement (BWO) (fold over background); higher = more active; k-Seq, kA / k0A0; sequences stand for … in GGGAAUGGAUCCACAUCUACGAAUUC…UUCACUGCAGACUUGACGAAGCUG
Outline: as §1

| Sequence | self-aminoacylation |
| --- | --- |
| AAACUUCAAACAAUCGGUCUG [Fam1A.1 aminoacylation ribozyme variant] | 18.7 |
| AAGAUUGCUAAUAGCCGCAAG [Fam3.1 aminoacylation ribozyme variant] | 2.47 |
| AAGCUUGAUAAUAGUCGCAAG [Fam3.1 aminoacylation ribozyme variant] | 2.02 |
| AAGGUUGCUAAUAGUCGCAGG [Fam3.1 aminoacylation ribozyme variant] | 2.28 |
| AAGUAUGCUAAUAGUCGCAAG [Fam3.1 aminoacylation ribozyme variant] | 6.46 |
| AAGUAUGCUAAUAGUCGCACG [Fam3.1 aminoacylation ribozyme variant] | 2.03 |
| AAGUUAGCUAAUAGUCGUAAG [Fam3.1 aminoacylation ribozyme variant] | 3.54 |
| AAGUUCUCUAAUAGUCGCAAG [Fam3.1 aminoacylation ribozyme variant] | 2.07 |
| AAGUUGGCUAAUAGUCUCAAG [Fam3.1 aminoacylation ribozyme variant] | 2.27 |
| AAGUUUGCGAAUAUUCGCAAG [Fam3.1 aminoacylation ribozyme variant] | 2.71 |
| AAGUUUGCUAGUAGUCGCAAA [Fam3.1 aminoacylation ribozyme variant] | 2.13 |
| AAUCACCUAGGUCAUAGGGUG [Fam2.2 aminoacylation ribozyme variant] | 2.15 |
| AAUCACCUAGGUCAUCAGGUG [Fam2.2 aminoacylation ribozyme variant] | 2.18 |
| AUUACGCUGGUCAUCGAGCGA [Fam2.1 aminoacylation ribozyme variant] | 2.16 |
| AUUCACCUAGGUUAUCAGGUG [Fam2.2 aminoacylation ribozyme variant] | 2.12 |
| CGACUUCAAACAACCGGUCUG [Fam1A.1 aminoacylation ribozyme variant] | 2.13 |
| GUACUUUAAACAAUCGGUCUG [Fam1A.1 aminoacylation ribozyme variant] | 2.08 |
